This is an account of results in IntAct's records for PubMed 20511297.

First the molecules themselves.
B1: Thioredoxin-like protein CITRX, chloroplastic (Arabidopsis thaliana (Mouse-ear cress)), Q9M7X9 (parent)
chain: MALVQSRTFPHLNTPLSPILSSLHAPSSLFIRREIRPVAAPFSSSTAGNLPFSPLTRPRKLLCPPPRGKFVREDYLVKKLSAQELQELVKGDRKVPLIVDFYATWCGPCILMAQELEMLAVEYESNAIIVKVDTDDEYEFARDMQVRGLPTLFFISPDPSKDAIRTEGLIPLQMMHDIIDNEM
partner: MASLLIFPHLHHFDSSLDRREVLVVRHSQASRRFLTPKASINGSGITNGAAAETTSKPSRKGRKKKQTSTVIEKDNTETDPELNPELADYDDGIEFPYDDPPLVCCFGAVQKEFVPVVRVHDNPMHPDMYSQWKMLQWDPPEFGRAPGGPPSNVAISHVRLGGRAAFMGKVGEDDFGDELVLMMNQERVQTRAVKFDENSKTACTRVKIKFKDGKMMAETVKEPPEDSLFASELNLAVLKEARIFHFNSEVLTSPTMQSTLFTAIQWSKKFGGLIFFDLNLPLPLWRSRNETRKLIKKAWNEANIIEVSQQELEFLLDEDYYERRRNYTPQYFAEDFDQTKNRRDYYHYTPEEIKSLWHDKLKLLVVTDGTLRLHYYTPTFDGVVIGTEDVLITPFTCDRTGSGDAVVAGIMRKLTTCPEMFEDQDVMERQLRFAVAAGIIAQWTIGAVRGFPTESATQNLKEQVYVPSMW
B2: Fructokinase-like 1, chloroplastic (Arabidopsis thaliana (Mouse-ear cress)), Q9M394 (parent)
chain: B1 partner
partner: B1 chain
B3: Fructokinase-like 2, chloroplastic (Arabidopsis thaliana (Mouse-ear cress)), F4I0K2 (parent)
chain: MASLSFTQFLSFPRCNADVPCLLQSHGFVKFRGERWNGKQSFSMAAGRRKLSESAPLEEEGNDGNGAVVGKKPSKSVKRTTKKKVVVKDEPLEEISEFLVDNDDVLDKESIVSALKPKKTRTRKKAAAASSDVEEVKTEKKVRRKRTVKKDKDVEDDLATIMDAEVSDVEEALAVESTDTESEEEEIDLSKHEGEDISHTYGWPPLVCCFGSAQHAFVPSGRPANRLLDYELHERMRDAKWAPEKYIRAPGGCAGGVAIALASLGGKVAFMGKLGADDYGQAMLYYLNVCKVQTRSVKIDGKRVTACSTMKISKRGRLKSTCIKPCAEDSLSKSEINVDVLKEAKMFYFSTHSLLDKKMMSTTIQAIKISKQLGNVIFYDLNLPLPLWHSSEETKSFIQEVWNLADVIEITKQELEFLCGIEPTEEFDTENNDISKFVHYPPETVEQLWHENLKVLFVTNGTSKIHYYTKEHNGAVSGMEDVPITPFTRDMSASGDGIVAGLIRMLTVQPDLMNNKGYLERTARYAIECGIIDQWLLAQTRGYPPKDDMEEEEDDEEEDEVESDPNGIRSITEKEYRTSKPYDEPDGPYVMKPVEEREYKKLELVGSMFEDGSL
partner: B1 chain
B4: Thioredoxin-like protein CITRX, chloroplastic (Arabidopsis thaliana (Mouse-ear cress)), Q9M7X9 (parent)
chain: B1 chain
partner: B3 chain

In the first test the parent is B1. To be noted: with sckl1_arath FLN1, Q9M394.
Regarding C106S, the “effect of a mutation on the interaction” value is on record as “decreasing interaction”.

In the next test the parent is B2. To be noted: with citrx_arath CITRX, Q9M7X9.
Turning to C106A, the “effect of a mutation on the interaction” value is “decreasing interaction”. The same measure, in the same setting: in the case of C105A;C106S it was “disrupting interaction”.

Variants of B3 are the subject of another test. To be noted: with citrx_arath CITRX, Q9M7X9.
On to C208A, for which the “effect of a mutation on the interaction” value is listed as “decreasing interaction”. The same measure, in the same setting: under C209A stands “decreasing interaction”. As for C208A;C209A, the “effect of a mutation on the interaction” value is recorded as “disrupting interaction”.

A further test covers variants of B4. To be noted: with sckl2_arath FLN2, F4I0K2.
Turning to C106S, the “effect of a mutation on the interaction” value is reported as “decreasing interaction”.
